Laboratory results from US20230183379A1.

Target: human IL-6 (human) (UniProt P05231)
Assay: cell-based or functional assay

human IL-6 (human), sequence (P05231 30-212 limits assumed): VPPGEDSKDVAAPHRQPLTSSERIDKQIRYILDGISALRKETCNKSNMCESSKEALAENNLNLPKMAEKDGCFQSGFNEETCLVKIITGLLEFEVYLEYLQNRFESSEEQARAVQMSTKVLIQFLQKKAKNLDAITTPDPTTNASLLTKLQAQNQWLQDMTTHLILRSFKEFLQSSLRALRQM

- inhibition of growth of XG6 cells in 40 pM IL-6, IC50: 3 nM
- inhibition of growth of XG7 cells in 40 pM IL-6, IC50: 6 nM
B1: BE8 (mouse monoclonal anti-IL6 neutralizing antibody) (antibody, from another filing, V domains shown)
VH: QVTLKESGPGILKPSQTLSLTCSFSGFSLSTSGMGVGWIRQPSGKGLEWLAHIWWDDDKYYNPSLKSQLTISKDTSRNQVFLKITSVDTADTATYYCARSYDDYLYYALDYWGQGTSVTVSS
VL: DIVMTQSPATLSVTPGDRVSLSCRASQSISDYLHWYQQKSHESPRLLIKSVSQSISGIPSRFSGSGSGSDFTLSINSVEPEDVGVYYCQNGHSFPLTFGAGTKLELK
